According to US20030215913A1 (published 2003):

T1: LP226 (human, UniProt Q6WN34 26-429, limits assumed)
T1 construct: Secreted chordin-like protein; the cleavage site was not determined by experiment; also called LP226 polypeptide; LP polypeptide
T1 sequence: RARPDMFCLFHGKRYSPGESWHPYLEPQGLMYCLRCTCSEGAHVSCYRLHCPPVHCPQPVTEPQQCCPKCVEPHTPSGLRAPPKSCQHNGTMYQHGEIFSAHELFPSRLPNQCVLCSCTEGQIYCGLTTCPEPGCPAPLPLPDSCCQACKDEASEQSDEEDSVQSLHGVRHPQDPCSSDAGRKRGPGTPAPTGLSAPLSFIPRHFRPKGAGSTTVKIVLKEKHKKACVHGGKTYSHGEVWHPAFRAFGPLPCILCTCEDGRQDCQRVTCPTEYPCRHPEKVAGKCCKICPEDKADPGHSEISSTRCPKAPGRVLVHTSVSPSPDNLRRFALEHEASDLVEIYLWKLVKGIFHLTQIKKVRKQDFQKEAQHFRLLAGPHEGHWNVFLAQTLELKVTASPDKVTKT


What follows are binders tested against T1, LP226 (assay: BIAcore 2000 SPR, LP226 amine-coupled to CM5 chip, ligand injected).
Description: A BIAcore 2000 instrument is used to detect real-time binding between immobilized LP226 and various TGF-beta and BMP proteins. LP226 is diluted to a concentration of […] in 10 mM sodium acetate buffer at pH 5.0. LP226 is immobilized to a CM5 sensor chip using the amine coupling method. Follistatin, containing BSA, is immobilized as a positive control.
TGF-beta and BMP proteins are diluted in HBS-EP buffer. Samples are injected over LP226 and control surfaces using the kinject method. Samples containing 5 µg/mL and 1 μg/mL of protein are injected at 30 μL/min for three minutes with a ninety second dissociation time. LP226 and control surfaces are then regenerated with glycine-hydrochloride at pH 3.0.

Row | binding result | Binder
1 | no binding | fas-ligand (ligand, UniProt P48023 134-281, looked up, Negative control injected over the LP226 surface; also called negative control) PSPPPEKKELRKVAHLTGKSNSRSMPLEWEDTYGIVLLSGVKYKKGGLVINETGLYFVYSKVYFRGQSCNNLPLSHKVYMRNSKYPQDLVMMEGKMMSYCTTGQMWARSSYLGAVFNLTSADHLYVNVSELSLVNFEESQTFFGLYKL
2 | no binding (tested: 5 g/mL and 1 µg/mL) | BMP-6 (ligand, UniProt P22004 382-513, looked up) QQSRNRSTQSQDVARVSSASDYNSSELKTACRKHELYVSFQDLGWQDWIIAPKGYAANYCDGECSFPLNAHMNATNHAIVQTLVHLMNPEYVPKPCCAPTKLNAISVLYFDDNSNVILKKYRNMVVRACGCH
3 | no binding (tested: 5 g/mL and 1 µg/mL) | BMP-5 (ligand, UniProt P22003 317-454, looked up) AANKRKNQNRNKSSSHQDSSRMSSVGDYNTSEQKQACKKHELYVSFRDLGWQDWIIAPEGYAAFYCDGECSFPLNAHMNATNHAIVQTLVHLMFPDHVPKPCCAPTKLNAISVLYFDDSSNVILKKYRNMVVRSCGCH
